Laboratory results published in publication doi:10.1101/2023.09.21.558797, “Dynamin 1xA interacts with Endophilin A1 via its spliced long C-terminus for ultrafast endocytosis” (bioRxiv, 2023).
No end group written: not given here.

T1: GST-Dyn1xA-PRR (full-length proline-rich region of Dynamin 1 splice variant xA, 746-864) (rat, UniProt P21575 746-864)
T1 construct: cloned in pGEX-6P-1; used on beads in pull-downs and in solution in the ELISA; also called PRD
T1 sequence (looked up): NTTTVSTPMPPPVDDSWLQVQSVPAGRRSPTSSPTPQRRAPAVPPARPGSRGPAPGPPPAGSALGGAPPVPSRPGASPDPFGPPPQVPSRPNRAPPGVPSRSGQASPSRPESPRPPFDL

T2: Dyn1xA-PRR 746-864 (GST tag removed) (rat, UniProt P21575 746-864, 15N-labelled (or 15N, 13C labelled) for NMR)
T2 construct: the SEC-MALS mass (19.2 kDa for the 1:1 complex) fits the cleaved forms; also called PRD; source: E. coli JM109, GST tag proteolytically cleaved, purified by gel filtration
T2 sequence (looked up): T1 sequence (looked up)

B1: GST-Dyn1xA 746-798 (domain or fragment, rat, UniProt P21575 746-798, looked up)
chain: NTTTVSTPMPPPVDDSWLQVQSVPAGRRSPTSSPTPQRRAPAVPPARPGSRGP
notes: Dynamin 1, rat, N746 to P798 of the PRR, common to splice variants xA and xB; also called phosphobox-1 peptide
B2: Dyn1xA 746-798 (GST tag removed) (domain or fragment, rat, UniProt P21575 746-798, looked up)
chain: B1 chain
modifications: also: 15N-labelled (13C/15N for assignment)
notes: Dynamin 1, rat, N746 to P798 of the PRR; source: E. coli JM109, GST tag proteolytically cleaved, purified by gel filtration
B3: GST-Dyn1xA 806-864 (domain or fragment, rat, UniProt P21575 806-864, looked up)
chain: GSALGGAPPVPSRPGASPDPFGPPPQVPSRPNRAPPGVPSRSGQASPSRPESPRPPFDL
notes: Dynamin 1 splice variant xA, rat, G806 to L864
B4: Dyn1xA 806-864 (GST tag removed) (domain or fragment, rat, UniProt P21575 806-864, looked up)
chain: B3 chain
modifications: also: 15N-labelled (13C/15N for assignment)
notes: Dynamin 1 splice variant xA, rat, G806 to L864; source: E. coli JM109, GST tag proteolytically cleaved, purified by gel filtration
B5: His-tagged mouse Endophilin A1 SH3 domain (domain or fragment)
chain: not shown
notes: Endophilin A1, mouse, SH3 domain; the methods describe only a GST-Endophilin A1-SH3 construct (mouse, 292-352); no His-tagged construct is described there; also called His-tagged mouse Endophilin-SH3 domain
B6: Endophilin A1 SH3 domain (GST tag removed) (domain or fragment)
chain: not shown
notes: Endophilin A1, mouse, SH3 domain, amino acids 292-352 by the methods (the results say residues D291-H352); plasmid from Peter McPherson (McGill University); unlabelled in the titrations; also called endophilin SH3; Endophilin A SH3; source: E. coli JM109, GST tag proteolytically cleaved, purified by gel filtration

Key:
Conditions in all cases: both partners purified
[1] = target: B5; test: ELISA; His-tagged mouse Endophilin A1 SH3 domain coated on a 96-well plate, overlaid with increasing concentrations of GST-tagged Dyn1-PRR peptides; two experiments of four replicates
[2] = target: B6; test: NMR titration; 1H-15N HSQC chemical shift perturbation; unlabelled Endophilin A1 SH3 titrated into 15N-labelled Dyn1 peptide; 298 K, 600 MHz
[3] = target: T1, GST-Dyn1xA-PRR (full-length …); test: ELISA; His-tagged mouse Endophilin A1 SH3 domain coated on a 96-well plate, overlaid with increasing concentrations of GST-tagged Dyn1-PRR peptides; two experiments of four replicates
[4] = target: T2, Dyn1xA-PRR 746-864 (GST tag removed); test: SEC-MALS; Superdex 75 10/300 GL, 20 mM HEPES, 100 mM NaCl, 1 mM DTT, 1 mM PMSF, pH 7.2; complex at 0.5 mg and diluted to one third (0.167 mg)

Chain of His-tagged mouse Endophilin A1 SH3 domain (Q62420 290-349): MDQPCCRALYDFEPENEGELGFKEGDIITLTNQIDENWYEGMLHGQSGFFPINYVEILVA

Binder: B1
- fold weaker affinity than xA_(746–864) [1]: 9 fold

Binder: B2
- binding result [2]: binds

Binder: B3
- fold difference in affinity from xA_(746–864) [1]: < 2 fold
- fold higher affinity than xA_(746–798) [1]: 5 fold

Binder: B4
- binding result [2]: binds

Binder: B5
- Kd [3]: 44 nM

Binder: B6
- stoichiometry N [4]: 1
